For assay [1], the target named is IgEs from a pool of sera from patients allergic to birch pollen and apple. Nature of the assay: ELISA inhibition, serum pool pre-incubated with 0.3125 µg/ml inhibitor; competitor: wt Mal d 1 adsorbed on wells. (In general: In an ELISA, binding on a coated surface is turned into a signal by an enzyme label.)
Assay [2] has the same target. The experiment in a line: ELISA inhibition, serum pool pre-incubated with 0.625 µg/ml inhibitor; competitor: wt Bet v 1 adsorbed on wells.
For assay [3], the target named is IgE of patient serum 7. Nature of the assay: ELISA inhibition, serum 7 pre-incubated with 1.25 µg/ml inhibitor; competitor: wt Mal d 1 adsorbed on wells.
For assay [4], the target named is IgE of patient serum 2. Nature of the assay: ELISA inhibition, serum 2 pre-incubated with 1.25 µg/ml inhibitor; competitor: wt Bet v 1 adsorbed on wells.
For assay [5], the target named is IgE of patient serum 2. Nature of the assay: ELISA inhibition, serum 2 pre-incubated with 1.25 µg/ml inhibitor; competitor: wt Mal d 1 adsorbed on wells.
Assay [6] has as its target IgE of patient serum 5. Nature of the assay: ELISA inhibition, serum 5 pre-incubated with 1.25 µg/ml inhibitor; competitor: wt Mal d 1 adsorbed on wells.
Assay [7] has as its target IgE of patient serum 7. The experiment in a line: ELISA inhibition, serum 7 pre-incubated with 1.25 µg/ml inhibitor; competitor: wt Bet v 1 adsorbed on wells.
Assay [8] deals with IgE of patient serum 3. Nature of the assay: ELISA inhibition, serum 3 pre-incubated with 1.25 µg/ml inhibitor; competitor: wt Bet v 1 adsorbed on wells.
Assay [9] has as its target IgE of patient serum 1. Nature of the assay: ELISA inhibition, serum 1 pre-incubated with 1.25 µg/ml inhibitor; competitor: wt Mal d 1 adsorbed on wells.
In assay [10] the target is specific IgE contained in the sera of 7 patients allergic to birch and apple. Nature of the assay: ELISA inhibition, 7 sera pre-incubated with 1.25 µg/ml inhibitor; competitor: wt Mal d 1 adsorbed on wells.
The target of assay [11] is IgE of patient serum 4. The experiment in a line: ELISA inhibition, serum 4 pre-incubated with 1.25 µg/ml inhibitor; competitor: wt Mal d 1 adsorbed on wells.
The target in assay [12] is IgE of patient serum 3. Nature of the assay: ELISA inhibition, serum 3 pre-incubated with 1.25 µg/ml inhibitor; competitor: wt Mal d 1 adsorbed on wells.
Assay [13] deals with IgE of patient serum 1. Nature of the assay: ELISA inhibition, serum 1 pre-incubated with 1.25 µg/ml inhibitor; competitor: wt Bet v 1 adsorbed on wells.
The target in assay [14] is IgE of patient serum 6. The experiment in a line: ELISA inhibition, serum 6 pre-incubated with 1.25 µg/ml inhibitor; competitor: wt Bet v 1 adsorbed on wells.
Assay [15] has as its target specific IgE contained in the sera of 7 patients allergic to birch and apple. The experiment in a line: ELISA inhibition, 7 sera pre-incubated with 1.25 µg/ml inhibitor; competitor: wt Bet v 1 adsorbed on wells.
Assay [16] addresses IgE of patient serum 4. Nature of the assay: ELISA inhibition, serum 4 pre-incubated with 1.25 µg/ml inhibitor; competitor: wt Bet v 1 adsorbed on wells.
The target in assay [17] is IgE of patient serum 6. The experiment in a line: ELISA inhibition, serum 6 pre-incubated with 1.25 µg/ml inhibitor; competitor: wt Mal d 1 adsorbed on wells.
For assay [18], the target named is IgE of patient serum 5. The experiment in a line: ELISA inhibition, serum 5 pre-incubated with 1.25 µg/ml inhibitor; competitor: wt Bet v 1 adsorbed on wells.
In assay [19] the target is IgEs from a pool of sera from patients allergic to birch pollen and apple. Nature of the assay: ELISA inhibition, serum pool pre-treated with 0.3125 µg/ml inhibitor; competitor: wt Mal d 1 adsorbed on wells.
Assay [20] shares this target. The experiment in a line: ELISA inhibition, serum pool pre-treated with 0.625 µg/ml inhibitor; competitor: wt Bet v 1 adsorbed on wells.

Numbering of substitutions follows the chain as printed.

B1: hypoallergenic Mal d 1 variant with two substitutions, positions 25 and 78 (SEQ ID NO: 2) (protein)
chain: HHHHHHGVYTFENEFTSEIPPSRLFKAFVLAADNLIPKIAPQAIKQAEILEGDGGPGTIKKITFGEGSQYGYVKHKIDSVDEAAYSYAYTLIEGDALTDTIEKVSYETKLVASGSGSIIKSISHYHTKGDVEIKEEHVKAGKEKAHGLFKLIESYLKGHPDAYN
Consider B1, for which the % inhibition of wt Mal d 1-IgE binding in [1] amounted to 25.4%. Besides, in [2], the % inhibition of wt Bet v 1-IgE binding was found to be 4.2%.

B2: mixture of the two mutagenised allergens (mut Bet v 1-SEQ ID NO:6 and mut Mal d 1-SEQ ID NO:2) (protein)
chain 1: HHHHHHGVFNYETETTSVIPAARLFKAFILDGDNLFPKVAPQAISSVENIEGNGGPGTIAKISFPEGFPFKYVKDRVDEVDHTNFKYNYSVIEGGPIGDTLEKISNEIKIVATPDGGSILAINNKYHTAGDHEVKAEQIKASKEMGETLLRAVESYLLAHSDAYN
chain 2: B1 chain
B2: the % inhibition of Mal d 1-IgE binding turned out to be 65.6% with IgE of patient serum 7 [3]; 42.4% with IgE of patient serum 2 [5]; 27.6% with IgE of patient serum 5 [6]; 76.7% in the assay with IgE of patient serum 1 [9]; 46% in the assay with IgE of patient serum 4 [11]; 49% with IgE of patient serum 3 [12]. Moreover, in the assay with IgE of patient serum 6 [17], the % inhibition of Mal d 1-IgE binding came out at 53.9%. For the same molecule, the % inhibition of Bet v 1-IgE binding amounted to 72.8% with IgE of patient serum 2 [4]; 20.6% in the assay with IgE of patient serum 7 [7]; 52.3% in the assay with IgE of patient serum 3 [8]; 88.4% in the assay with IgE of patient serum 1 [13]; 41.8% with IgE of patient serum 6 [14]; 56.5% in the assay with IgE of patient serum 4 [16]. The molecule also returned a % inhibition of Bet v 1-IgE binding with IgE of patient serum 5 [18] of 41%. In assay [10], the mean % inhibition of Mal d 1-IgE binding (7 sera) was 51.6%. Further, in assay [15], the mean % inhibition of Bet v 1-IgE binding (7 sera) turned out to be 53.3%.

B3: wild-type Mal d 1, major allergen of Malus domestica (SEQ ID NO: 1) (protein)
chain: B1 chain with A31D, A84N
B3: the % inhibition of wt Mal d 1-IgE binding in assay [19] is 93.3%. Besides, in [2], the % inhibition of wt Bet v 1-IgE binding is 46%.

B4: mixture of the single wt allergens (wt Bet v 1 and wt Mal d 1) (protein)
chain 1: B2 chain 1 with A60K, A121K, A129K
chain 2: B1 chain with A31D, A84N
With B4, the % inhibition of Mal d 1-IgE binding with IgE of patient serum 7 [3] stood at 70.3%; in the assay with IgE of patient serum 2 [5], 93.9%; with IgE of patient serum 5 [6] it was 88.3%; in the assay with IgE of patient serum 1 [9] it was 95.5%; in the assay with IgE of patient serum 4 [11], 77.3%; with IgE of patient serum 3 [12], 80.5%. This molecule also showed a % inhibition of Mal d 1-IgE binding with IgE of patient serum 6 [17] of 73.7%. Further, the % inhibition of Bet v 1-IgE binding is 96.6% with IgE of patient serum 2 [4]; 36.8% in the assay with IgE of patient serum 7 [7]; 90.9% with IgE of patient serum 3 [8]; 97.1% with IgE of patient serum 1 [13]; 65.2% with IgE of patient serum 6 [14]; 81.2% in the assay with IgE of patient serum 4 [16]. This molecule also showed a % inhibition of Bet v 1-IgE binding with IgE of patient serum 5 [18] of 91.6%. Further, the mean % inhibition of Mal d 1-IgE binding (7 sera) in assay [10] stood at 82.8%. This molecule also gave a mean % inhibition of Bet v 1-IgE binding (7 sera) in [15] of 79.9%.

B5: Mal d 1 variant with the single substitution Asn 78 in Ala (SEQ ID NO: 11) (protein)
chain: B1 chain with A31D
Turning to B5, in [20], the % inhibition of wt Bet v 1-IgE binding came out at 32.1%. This molecule also yielded a % inhibition of SEQ ID NO:1-IgE binding in assay [1] of 19.7%.

B6: wild-type Bet v 1-Mal d 1 hybrid molecule (SEQ ID NO: 3) (protein)
chain: HHHHHHGVFNYETETTSVIPAARLFKAFILDGDNLFPKVAPQAISSVENIEGNGGPGTIKKISFPEGFPFKYVKDRVDEVDHTNFKYNYSVIEGGPIGDTLEKISNEIKIVATPDGGSILKINNKYHTKGDHEVKAEQIKASKEMGETLLRAVESYLLAHSDAYNEFGVYTFENEFTSEIPPSRLFKAFVLDADNLIPKIAPQAIKQAEILEGDGGPGTIKKITFGEGSQYGYVKHKIDSVDEANYSYAYTLIEGDALTDTIEKVSYETKLVASGSGSIIKSISHYHTKGDVEIKEEHVKAGKEKAHGLFKLIESYLKGHPDAYN
In the case of B6, the % inhibition of Mal d 1-IgE binding with IgE of patient serum 7 [3] was 60.6%; with IgE of patient serum 2 [5], 84.5%; with IgE of patient serum 5 [6] it was 68%; with IgE of patient serum 1 [9] it was 92%; with IgE of patient serum 4 [11] it was 71.3%; with IgE of patient serum 3 [12] it was 75.1%. In addition, in the assay with IgE of patient serum 6 [17], the % inhibition of Mal d 1-IgE binding came out at 70.5%. For the same molecule, the % inhibition of Bet v 1-IgE binding with IgE of patient serum 2 [4] came out at 85.1%; with IgE of patient serum 7 [7], 15.9%; with IgE of patient serum 3 [8], 76.2%; with IgE of patient serum 1 [13] it was 93.6%; in the assay with IgE of patient serum 6 [14], 56.6%; with IgE of patient serum 4 [16], 61.7%. In the assay with IgE of patient serum 5 [18], the % inhibition of Bet v 1-IgE binding is 50.8%. Besides, the mean % inhibition of Mal d 1-IgE binding (7 sera) in assay [10] is 74.6%. In assay [15], this molecule yielded a mean % inhibition of Bet v 1-IgE binding (7 sera) of 63.3%.

B7: mutant Bet v 1-Mal d 1 hybrid molecule (SEQ ID NO: 4) (protein)
chain: B6 chain with K60A, K121A, K129A, D192A, N245A
For the molecule B7, the % inhibition of Mal d 1-IgE binding was determined as 60.4% in the assay with IgE of patient serum 7 [3]; 41.9% in the assay with IgE of patient serum 2 [5]; 50.8% with IgE of patient serum 5 [6]; 91% with IgE of patient serum 1 [9]; 64.3% in the assay with IgE of patient serum 4 [11]; 66.3% with IgE of patient serum 3 [12]. The % inhibition of Mal d 1-IgE binding with IgE of patient serum 6 [17] came out at 70.8%. For the same molecule, the % inhibition of Bet v 1-IgE binding with IgE of patient serum 2 [4] came to 36.4%; with IgE of patient serum 7 [7] it was 18.2%; with IgE of patient serum 3 [8] it was 35.9%; with IgE of patient serum 1 [13] it was 90.2%; with IgE of patient serum 6 [14] it was 0%; with IgE of patient serum 4 [16] it was 35.9%. Also, the % inhibition of Bet v 1-IgE binding in the assay with IgE of patient serum 5 [18] is 7.8%. In assay [10], this molecule had a mean % inhibition of Mal d 1-IgE binding (7 sera) of 63.6%. The mean % inhibition of Bet v 1-IgE binding (7 sera) in assay [15] was 32.1%.

B8: wild-type Bet v 1, major allergen of Betula verrucosa pollen (SEQ ID NO: 5) (protein)
chain: B2 chain 1 with A60K, A121K, A129K
Regarding B8, the % inhibition of wt Bet v 1-IgE binding in assay [20] came to 94%.

(Values after patent US20140294878A1.)
